Experiment [1] has as its target T1, human HGF (R&D material and Peprotech material, values averaged over both) (human, UniProt P14210 32-728).
T1 construct: As printed they differ in one letter
In words: SPR (Biacore T100), summary table. For orientation: Surface plasmon resonance follows binding to a sensor surface in real time, without labels.

Experiment [2] has as its target T2, human HGF (R&D Systems, 294-HG/CF) (human, UniProt P14210 32-728).
T2 construct: The entry begins at QRKRR, without signal peptide; Amine-coupled to the chip in SPR and biotinylated in AlphaScreen; also called rec hHGF (R&D systems)
In words: SPR (Biacore T100), HGF amine-coupled to CM5 chip, periplasmic extract at one dilution. How it is done:
Off-rate constants (Koff) of individual Nanobodies were determined by surface plasmon resonance on a Biacore T100 instrument.
Human HGF (R&D) was amine-coupled to a CM5 sensor chip at a density of 2500 relative units. Remaining reactive groups were inactivated using ethanolamine. Nanobody binding was assessed at a single dilution of periplasmic extract, whereas c-Met was tested with a single concentration of 10 nM. Each sample was injected for 2 min at a flow rate of 45 μl/min to allow for binding to chip-bound antigen. Next, binding buffer without Nanobody was sent over the chip at the same flow rate to allow dissociation of bound Nanobody. After 10 min, remaining bound analyte was removed by injecting regeneration solution (1M NaCl, 50 mM NaOH).

For experiment [3], the target named is T2, human HGF (R&D Systems, 294-HG/CF). In words: AlphaScreen competition, biotinylated HGF and c-Met-Fc, dilution series of purified Nanobody. The procedure:
In brief, 5 μl of 1/5 prediluted periplasmic extract of individual Nanobody clones were incubated with 3 nM biotinylated HGF, 2 nM c-Met-Fc, streptavidin coated donor beads and anti-human IgG1 Fc Nanobody covalently coupled AlphaScreen acceptor beads. Monoclonal antibody clone 24612 (R&D systems) known to inhibit the HGF/c-Met-Fc interaction, was used as a positive control. Assays were read in an Envision AlphaScreen™ option fitted multimode reader (Perkin Elmer). Individual clones were scored as putative HGF/c-Met-Fc interaction inhibiting if the presence of the periplasmic extract decreased the fluorescent signal of the acceptor beads. Both inhibitory and non-inhibitory clones were identified. A 10-fold reduction in signal with respect to the negative control (irrelevant periplasmic extract and buffer) was used to select the HGF/c-Met inhibiting Nanobodies. As a positive control, anti-HGF monoclonal antibody (R&D systems, clone 24612) was included. FIG. 2 depicts an example of screen of periplasmic extracts using AlphaScreen.
Serial dilutions of purified Nanobodies were then analyzed for their ability to block the interaction of human HGF with c-Met-Fc using the same AlphaScreen™ assay as described above (1.4). […]

The target of experiment [4] is T1, human HGF (R&D material and Peprotech …). In words: SPR (Biacore T100), purified Nanobody, biphasic dissociation, kd2 fitted 300-720 s after injection start.
Experiment [5] shares this target. In words: SPR (Biacore T100), purified Nanobody, biphasic dissociation, kd1 fitted 125-185 s after injection start; kd1: early phase of the bi-phasic dissociation, fitted 125 to 185 seconds after injection start.

T1 sequence (P14210 32-728 limits assumed): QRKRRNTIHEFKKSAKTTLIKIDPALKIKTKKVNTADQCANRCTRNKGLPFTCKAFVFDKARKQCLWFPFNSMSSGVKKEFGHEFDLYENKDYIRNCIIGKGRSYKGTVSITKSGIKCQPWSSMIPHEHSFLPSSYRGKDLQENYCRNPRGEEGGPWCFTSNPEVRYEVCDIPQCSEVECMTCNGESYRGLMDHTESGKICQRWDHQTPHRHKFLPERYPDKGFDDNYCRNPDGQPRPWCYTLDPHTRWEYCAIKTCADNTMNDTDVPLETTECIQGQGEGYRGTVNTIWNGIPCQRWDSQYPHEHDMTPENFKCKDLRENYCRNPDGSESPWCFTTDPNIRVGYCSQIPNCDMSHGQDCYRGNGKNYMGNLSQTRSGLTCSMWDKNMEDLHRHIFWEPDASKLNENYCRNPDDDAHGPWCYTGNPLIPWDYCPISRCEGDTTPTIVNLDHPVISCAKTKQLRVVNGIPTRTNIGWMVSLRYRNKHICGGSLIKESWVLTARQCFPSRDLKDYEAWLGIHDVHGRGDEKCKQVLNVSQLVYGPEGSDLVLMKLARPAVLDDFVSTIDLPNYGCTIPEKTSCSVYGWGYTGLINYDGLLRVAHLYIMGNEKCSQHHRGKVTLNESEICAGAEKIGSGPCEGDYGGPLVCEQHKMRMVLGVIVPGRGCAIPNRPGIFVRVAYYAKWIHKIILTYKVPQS
T2 sequence (P14210 32-728 limits assumed): as above

B1: 9H5 (VHH)
VHH: EVQLVESGGGLVQPGGSLRLSCAASGSIFNLNPMGWYRQAPGKQRELVATVTGEGRTNYSDSVKGRFTISRDNAKNTVYLQMNSLKPEDTAVYYCNAAFWAYDDAYWGQGTQVTVSS
notes: anti-HGF Nanobody clone; not shown: c-myc and His6 tags
The koff is a measure of how fast the partners let go of each other. A low value points to slow dissociation. As usually defined, the IC50 is the point on the concentration scale where inhibition reaches its midpoint. With B1, the koff was 0.001 s⁻¹ in experiment [1], 0.00155 s⁻¹ in experiment [2], 0.000952 s⁻¹ in experiment [4] and 0.00241 s⁻¹ in experiment [5]. Further, the IC50 in experiment [3] was 2.1 nM.

The values are drawn from patent US20150010546A1 (Ablynx, published 2015).
